The NTF2 design screens of Basanta et al. (2020)

Test: protease stability score; higher = more stable; yeast display proteolysis, trypsin and chymotrypsin;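 further: relative to predicted unfolded state with 0 unfolded-like and 1 meaning tenfold more protease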

In the case of “DKLHHDARWMMERLYETLETGDFHSFLRLADPEVLLIINGQFLHGREEVERFYDEEREKFKGLTIKHLHIHRVEMQGDKVRVDSRIHHIINGVNVHNNVKLEFVAFDGRMHRLRIEEE”, the protease stability score is reported as 1.24.

“DKQHEDIRRFMEEFLNAVTTGDEDVLSRLHDPHARFRLHQGEKHDEKHGRESWLKWMSEIRIHHIEIEHIDVQGDYTLMIVHSDGTIDGVRMEWESRIILYVYNGKLKEVEVRIH” gave a protease stability score of 0.691.

Sequence “DKRDEKMERFLRLMIEFYTTGNEDEFRKLADPDVRTIVGDKHAHGWEESEKVFRILIDHMRIRRIHIEHITVQGNWAHSITRLDGEVNGVRVHVRTEVVIIVYNGRVETIDLRWE” has a protease stability score of 1.28.

In the case of “DKREEELHWAVELLIDIFRTGDERLLIELIDPHARSEVGDKTLHGRQHAEVEHRDWGLDRVETHIHDYKVQGNKLHLDMSTVVNGKDIKISFIAEKYNGRWHLKRIIIR”, the protease stability score is reported as 1.27.

“DKREEEVHELIRELVESIITGDFRHFFKLLDPHARSEVGDKELHGREQISDWLLKHIRRVKNITFKEVHFHELRVIGDKVEFHFDIRGVINGQDTTLEVEMKARKIDGRWHVEEIRFI” gave a protease stability score of 1.28.

For “DKREEIAREIWKMFDDAVFTGNEETLERMADPNVRFIIGDKHLIGMRDEIHWLREIRVHIELSRIHDIHLQGDKIHIDSHNDIEIIINGQERRHETKYMIDIRKVNGRWIIERVEIR”, the protease stability score was 0.818.

In the case of “DKREHDMERWFKLWWHTLMTGDEDLYHELLDPNARIVQGEKHHHGRENLVEYFTHLVEEMRIRHFHLHDMRFQGEKNDIDGHIDITINGQRHDTRFTIHLLIVNGKLRHVELRIL”, the protease stability score is reported as 0.506.

With “DKRIEWYRHVMEVLFNILLTGNFEILEELLDPHVRIDINGKEYHGREQMIEAWETHLHELRIHDMRIKTIDHQGDKHILTTRVDIDIDGQNVEDRTHIELHIIDGRLKSIILRVS” the protease stability score was 1.06.

Sequence “DKTEEDAKRWAEHFSHNMETGNEEKIIDLADPNTRLEVNGRHVHGREEFSRFWKELSDRVDHIRIQITRISIIGDKIRIDSRIFLHINGKEMIVESVLISEKVNGRWMMREIDIR” has a protease stability score of 1.84.

“DKTTEEAERDAREVTRLHRTGDEEYLEKYFDPHVKLEFNGRDVHGMELASEILKKVRRDLGVDHIEVKHVELDVQGEWIHVHLNLRVFFDGRETRYEYNVHVRKIDGKWIIKHVIVRVS” gave a protease stability score of 1.34.

“DKVEDDLREFARLFVEYMETGDEDKVSKLMDPSMRIEIHINGKDIKYHGREELNRWRSEEMKRVDHEKWHHKHIRVIGDKVDIDFRRVEHVGDKHLVFQVHIELFVINGKLHTVIIRIE” gave a protease stability score of 1.53.

Sequence “DLDNILMKLFLKEVEEVERTGDERLIHELADPNVRVEQGDKKFHGRHEAVRIYMELGIKHSRLTDVKFFEGHVLIHVRIHVDGRDIDLTIFMHKIDGRWIIKSMKQD” has a protease stability score of 1.16.

In the case of “DLDQELREKTIRIELKAWRTGDEDKIKELLDPNTRFIINGRHLIGREAIHILLEQIDHFKDLQPRHVDVINGVVRFDGHMEGTFNGVDQSTKVHIIAWKYNGRWFIESIIII”, the protease stability score is reported as 1.59.

For “DLEHEITRRVLWELTESSKTGDFDRRLELLDPHARVNIDGKDFHGREEVEYLLREMEKFWGHDRVYLDVKEIEIQGDKIDVDSELTINGKKRKARLIVVKVNGRWVIHSIEVE”, the protease stability score was 1.04.

With “DLYKHWTDVLLHLFLHVSRTGDEEEVVRLMDPNTLIIINGQEIHGREEIKRTFREMRVDDERLKDMDKIGNKVRVDGEVRITVDGQERTSRAHMVVLKVDGRWTIHSLRIE” the protease stability score was 1.77.

For “DNDQEKIKELARLAEQVMQTGNEKLLRELFDPHARIDIDGKTLHGWKDLLEFTRHELERIDHVVFTVRRVDLQGDKVRVETEVNIDINGKKMTLETTLLIDKFDGRWFLRTIEWE”, the protease stability score was 1.8.

With “DNEDKLAEQMLKEILELWHTGDEEKWSNLADPNTRIHINGQESHGRDNFHKFWEDFHSTLGIDVLKFSLKDFRIQGDKSRVDVETKVKQGDKSEHYRTFLIFIIVDGRVKTIEIRIK” the protease stability score was 0.703.

Work on “DNEEKDNKTATKLLLDWLRTGDEESMSRNADPNTRLEIGDKEFHGREEVLRHLHELKRHFGIERFEVDIERVEIYGDKVVIHSRMNVNGQRREVIFIDRKIDGRWIFKSIELR” yielded a protease stability score of 1.13.

Work on “DNEERYMIKLLHMLWLAFLTGDEELWYKLADPHVRWTFENREIHGREQFVKEQRRIKNMRIEMELKDVRVQGDKIHTDGHLEINQGDKHIHTDVRLHLVVINGRLHEFHVTLV” yielded a protease stability score of 1.54.

For “DNESHLAEEWFRWFIDWMQTGNEEETRKFADPNVRFDINGVEIHGMKLYEDHIKHLGFRQDIRIRHIDTYDGQVDVDTEVRINVNGVEIRHKTRTNLIMIDGKLKTLTVKLE”, the protease stability score was 1.01.
